Target: Snapin, endogenous, in LNCaP cells (human) (UniProt O95295)
Assay: cell-based or functional assay

Chain of UniProt O95295 (O95295 2-136): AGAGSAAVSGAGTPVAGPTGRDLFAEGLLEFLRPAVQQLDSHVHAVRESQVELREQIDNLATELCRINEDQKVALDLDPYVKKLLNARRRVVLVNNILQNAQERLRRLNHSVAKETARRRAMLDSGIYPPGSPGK

Pearson's correlation coefficient of co-localization (double immunofluorescence, cell lamellipodia only): 0.68 | Pearson's correlation coefficient of co-localization (double immunofluorescence, whole cell): 0.485
Substance: human TMPAP stably expressed in LNCaP cells (LNCaP pMX TMPAP) (enzyme)

From patent publication US20130108609A1
